tested on: Escherichia coli TOP10; assay: shrunken log2 fold change of peptide-encoding DNA abundance (4.5 h post-induction vs induction); higher = less antimicrobial activity (less host growth inhibition); conditions: time post-induction: 4.5 h; library: site-saturation at positions 5, 18, 19, 20
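Further: peptides expressed intracellularly from a pBAD plasmid library in pooled LB shake-flask culture, induced with 0.3% L-arabinose, DNA abundance read by NGS, three biological replicates, DESeq2 with apeglm shrinkage.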

| Sequence | shrunken log2 fold change |
| --- | --- |
| RRIRHRPPRLPRPRPRPHTLPRP | -0.247 |
| RRIRFRPPRLPRPRPRPKKMPRP | 0.153 |
| RRIRWRPPRLPRPRPRPACRPRP | 0.258 |
| RRIRQRPPRLPRPRPRPVFIPRP | -0.288 |
| RRIRWRPPRLPRPRPRPETCPRP | 0.16 |
| RRIRPRPPRLPRPRPRPSIEPRP | -0.0734 |
| RRIRSRPPRLPRPRPRPENNPRP | -0.449 |
| RRIRHRPPRLPRPRPRPATGPRP | -0.276 |
| RRIRIRPPRLPRPRPRPIQWPRP | 0.0166 |
| RRIRMRPPRLPRPRPRPHCCPRP | -0.0266 |
| RRIRSRPPRLPRPRPRPRRMPRP | 0.141 |
| RRIRLRPPRLPRPRPRPVTPPRP | -0.0834 |
| RRIRTRPPRLPRPRPRPAVDPRP | -0.209 |
| RRIRNRPPRLPRPRPRPWNFPRP | -0.0018 |
| RRIRGRPPRLPRPRPRPQNHPRP | -0.18 |
| RRIRCRPPRLPRPRPRPYGQPRP | -1.33 |
| RRIRVRPPRLPRPRPRPMMCPRP | -0.00174 |
| RRIRCRPPRLPRPRPRPVIRPRP | -0.733 |
| RRIRERPPRLPRPRPRPIMYPRP | -1.08 |
| RRIRWRPPRLPRPRPRPDHMPRP | -0.128 |
| RRIRARPPRLPRPRPRPTNGPRP | -0.0688 |
| RRIRIRPPRLPRPRPRPADVPRP | -0.134 |
| RRIRQRPPRLPRPRPRPTFDPRP | 0.168 |
| RRIRERPPRLPRPRPRPLPVPRP | -0.0551 |
| RRIRERPPRLPRPRPRPQRKPRP | 0.0503 |

| Sequence | shrunken log2 fold change |
| --- | --- |
| RRIRSRPPRLPRPRPRPNDQPRP | -0.102 |
| RRIRTRPPRLPRPRPRPMPLPRP | -0.104 |
| RRIRARPPRLPRPRPRPDIPPRP | -0.192 |
| RRIRERPPRLPRPRPRPEICPRP | 0.162 |
| RRIRWRPPRLPRPRPRPCSVPRP | 0.0151 |
| RRIRERPPRLPRPRPRPYKSPRP | -0.0824 |
| RRIRRRPPRLPRPRPRPSEAPRP | -0.0295 |
| RRIRARPPRLPRPRPRPSPCPRP | 0.0808 |
| RRIRLRPPRLPRPRPRPMDNPRP | -1.1 |
| RRIRQRPPRLPRPRPRPLQCPRP | -0.357 |
| RRIRQRPPRLPRPRPRPRTCPRP | -0.576 |
| RRIRMRPPRLPRPRPRPWEHPRP | 0.0244 |
| RRIRHRPPRLPRPRPRPILMPRP | -0.00291 |
| RRIRTRPPRLPRPRPRPTARPRP | 0.0618 |
| RRIRYRPPRLPRPRPRPTFLPRP | -0.495 |
| RRIRFRPPRLPRPRPRPQPNPRP | -0.0249 |
| RRIRYRPPRLPRPRPRPDTRPRP | -0.153 |
| RRIRPRPPRLPRPRPRPQWEPRP | 0.155 |
| RRIRMRPPRLPRPRPRPYSYPRP | 0.0871 |
| RRIRNRPPRLPRPRPRPIMKPRP | -0.059 |
| RRIRQRPPRLPRPRPRPIPKPRP | -0.0574 |
| RRIRRRPPRLPRPRPRPCWFPRP | 0.225 |
| RRIRARPPRLPRPRPRPMSYPRP | 0.163 |
| RRIRGRPPRLPRPRPRPFFRPRP | 0.211 |
| RRIRFRPPRLPRPRPRPNAQPRP | 0.0328 |

| Sequence | shrunken log2 fold change |
| --- | --- |
| RRIRDRPPRLPRPRPRPGERPRP | 0.276 |
| RRIRLRPPRLPRPRPRPAWTPRP | 0.218 |
| RRIRMRPPRLPRPRPRPDAMPRP | 2.44 |
| RRIRRRPPRLPRPRPRPHPPPRP | 0.746 |
| RRIRERPPRLPRPRPRPCFSPRP | -0.0538 |
| RRIRQRPPRLPRPRPRPEHVPRP | 0.00725 |
| RRIRHRPPRLPRPRPRPVLVPRP | -0.0156 |
| RRIRARPPRLPRPRPRPVDVPRP | -0.113 |
| RRIRNRPPRLPRPRPRPVRVPRP | 0.0666 |
| RRIRHRPPRLPRPRPRPCHTPRP | -0.0375 |
| RRIRPRPPRLPRPRPRPIGAPRP | 0.288 |
| RRIRPRPPRLPRPRPRPIWIPRP | -0.308 |
| RRIRGRPPRLPRPRPRPIKKPRP | 0.00565 |
| RRIRLRPPRLPRPRPRPAECPRP | -0.167 |
| RRIRDRPPRLPRPRPRPSDMPRP | -0.307 |
| RRIRARPPRLPRPRPRPDKPPRP | 0.865 |
| RRIRPRPPRLPRPRPRPNNYPRP | -0.0307 |
| RRIRPRPPRLPRPRPRPEGMPRP | 0.305 |
| RRIRWRPPRLPRPRPRPMNPPRP | -0.153 |
| RRIRCRPPRLPRPRPRPSVEPRP | 0.00103 |
| RRIRERPPRLPRPRPRPLWDPRP | 0.108 |
| RRIRQRPPRLPRPRPRPPNWPRP | 0.358 |
| RRIRTRPPRLPRPRPRPIGKPRP | 0.0128 |
| RRIRERPPRLPRPRPRPEPDPRP | 0.0002 |
| RRIRARPPRLPRPRPRPYRTPRP | -0.0383 |
